Reference: patent US11078245B2, “Colon and pancreas cancer peptidomimetics” (PRECISION BIOLOGICS, INC., priority 2010, dated 2021)
Where “and” joins values, the source holds several entries; their conditions need not be identical. Equal values may be shown once.

Key:
[1] = tested on: colorectal and pancreatic cancer biopsies; experiment: IHC staining of patient tumor biopsies with NEO-101; assay type: binding, human; conditions: colorectal and pancreatic biopsies together
Experimental: Patients enrolled on the clinical diagnostic study agreed to provide their tumor biopsy or surgical specimen to be stained immunohistochemically with NEO-101. Tumor sections were prepared as slides, and two additional slides were prepared for negative control (human IgG1) and positive control (cytokeratin) staining to ensure quality controls for the IHC method. More specifically, tumor biopsy specimens from colorectal and pancreas cancer patients were deparaffinized at about 60° C. for 30 min prior to staining with NEO-101. Subsequently, all staining steps were carried out at about 25° C. Slides (4 μm) were blocked with Peroxo-Bloc® inhibitor (Zymed Laboratories) for about 2 min, rinsed with phosphate-buffered saline (PBS), and blocked with CAS (Zymed) for an additional about 10 minutes. Slides were stained with about 10 μg/mL of biotin-labeled NEO-101 for 1 hour, and washed three times with PBS containing 0.05% Tween®-20 non-ionic detergent. […]
All antibodies were biotinylated prior to use and tested independently at various concentrations using human tumor tissues known to react with the antibodies. Primary antibody (NEO-101) was used at about 10 μg/mL, detected with streptavidin-horseradish peroxidase conjugate, and mounted on slides. A positive staining scale ranging from +1 to +5 was applied to the staining results, measured by light microscopy. […]

[2] = Cytokine response in vivo, multiplex bead assay; set-up: species or system BALB/c mice; conditions: 3.5 or 14 mg/kg iv; day 3
Experimental: In a preliminary study designed to evaluate potential cytokine responses in vivo, normal BALB/c mice were injected intravenously with either 3.5 mg/kg or 14 mg/kg (5 mice per group) of research-grade NEO-101. Blood was collected on Study Day 3 (^72 hours post-injection) and Study Day 10. Serum was prepared (including from the pre-bleed of each mouse) and tested for the presence of mouse IL-2, IFN-γ, IL-4, and IL-5 in a multiplex bead assay using the SearchLight Array service offered by Aushon BioSystems, Inc.

lung tumor tissue = experiment: Immunohistochemistry of lung tumor tissue; assay type: binding; conditions: 10 μg/ml biotinylated antibody
Experimental: Slides were deparaffinized, rehydrated and antigen retrieval was performed. Slides were then stained with 10 μg/ml biotinylated NEO-101 antibody and then streptavidin-HRP was applied for color development. Slides were counter stained with H.E., hydrated and fixed. The results
The specificity of NEO-101 for pancreatic and colorectal tumor tissue was further shown by staining lung tumor tissue. While there was significant binding to these tissues with a commercial antibody that recognizes normal MUC5AC, there was no reactivity of NEO-101 with these lung tumor tissues.

B1: NEO-101: Chimeric NEO-101 antibody, engineered in CHO-DG44 production cell clone 4B7; targets a variant of MUC5AC (protein)
light: QVVLTQSPVIMSASPGEKVTMTCSASSSISYMYWYQQKPGTSPKRWIYDTSKLASGVPARFSGSGSGTSYSLTISNMEAGDAATYYCHQRDSYPWTFGGGTNLEIK
heavy: QVQLKESGPDLVAPSQSLSITCTVSGFSLSKFGVNWVRQPPGKGLEWLGVIWGDGSTSYNSGLISRLSISKENSKSQVFLKLNSLQADDTATYYCVKPGGDYWGHGTSVTVSS
- patient tumor samples considered positive (+1 to +5) [1]: 79%
- patient tumor samples considered positive, samples/total [1]: 30 of 38 and 30/38
- serum level of IFN-γ [2]: no appreciable change
- serum level of IL-2 [2]: small increase
- serum level of IL-4 [2]: no appreciable change
- serum level of IL-5 [2]: small increase
- reactivity with lung tumor tissues (lung tumor tissue): no reactivity
